For test [1], the target named is humanized development candidate monoclonal antibody IgG4 (hIgG4). Description: Gyrolab, mAb as capture, hIgG4 8 ng/ml.
The target is the same in test [2]. Description: Gyrolab, mAb as capture, hIgG4 40 ng/ml.
Test [3] shares this target. The experiment in a line: Gyrolab, mAb as capture, hIgG4 1.6 ng/ml.
The target is the same in test [4]. Description: Gyrolab, mAb as capture, hIgG4 200 ng/ml.
The target is the same in test [5]. Description: Gyrolab, mAb as capture, hIgG4 0.32 ng/ml.
For test [6] the target is unchanged. The experiment in a line: Gyrolab, mAb as capture, hIgG4 1000 ng/ml.
The target is the same in test [7]. The experiment in a line: Gyrolab, mAb as capture, hIgG4 5000 ng/ml.
The target of test [8] is humanized therapeutic monoclonal antibody IgG1 (hIgG1). Description: direct ELISA, hIgG1 coated, B-cell culture medium. (ELISA stands for enzyme-linked immunosorbent assay.)
Test [9] addresses humanized development candidate monoclonal antibody IgG4 (hIgG4). Description: direct ELISA, hIgG4 coated, B-cell culture medium.
Test [10] addresses cynomolgus monkey IgG (cynoIgG). The experiment in a line: direct ELISA, cynoIgG coated (hIgG1/CynoIgG screen), B-cell culture medium.
For test [11] the target is unchanged. The experiment in a line: direct ELISA, cynoIgG coated (hIgG4/CynoIgG screen), B-cell culture medium.
Test [12] concerns the target humanized development candidate monoclonal antibody IgG4 (hIgG4). Description: SPR (Biacore T200), mAb captured by anti-rabbit mAb on CM5, antigen 80-0 nM, 1:1 fit. A general note: Surface plasmon resonance follows binding to a sensor surface in real time, without labels.
Test [13] concerns the target humanized therapeutic monoclonal antibody IgG1 (hIgG1). The description is as above.
The target of test [14] is internal research reagent human Fab (hFab). Described as above.

B1: rabbit anti-human IgG monoclonal antibody clone 19B1 (antibody, V domains shown)
VH: QEQLVESGGGLVQPEGSLTLTCTASGFSFSDSYYMCWVRQAPGKGLEWIACIYGGTITNTYYASWAKGRFTISKTSSTTVTLQMTSLTAADTATYFCARDLGAAGDAYNLWGPGTLVTVSS
VL: ASDMTQTPASVSEPVGGTVTIKCQASENIYSSLAWYQQKPGQPPKLLIYDASNLASGVPSRFSGSGSGTEFTLTISDLECADAATYYCQCTYRSSSSSYAFGGGTEVVVKG
For the molecule B1, the Av. Resp. in test [1] turned out to be 6.2; in test [2], 22.8; in [3], 2.7; in [4], 82.9; in test [5] it was 1.8; in [6], 203. In [7], the Av. Resp. was determined as 246. The OD450 in test [8] is 1.15 OD450; in test [9] it was 0.954 OD450; in test [10], 0.055 OD450; in [11], 0.102 OD450. Besides, the Kd amounted to 0.067 nM in [12], 0.239 nM in test [13] and 0.54 nM in test [14].

B2: rabbit anti-human IgG monoclonal antibody clone 11F9 (antibody, V domains shown)
VH: QQQLEESGGGLVQPEGSLTLTCIASGFSFSSSHWICWVRQAPGKGLEWIACMSTSSGSTYDANWAKGRFTISKTSSTTVTLQMTSLTAADTATYFCARDVGGSTTYFDLWGPGTLVTVSS
VL: AYDMTQTPASVSEPVGGTVTIKCQASQSISNELSWYQQKPGQPPKLLIYRASTLASGVPSRFKGSGSGTQFTLTINGVECADAATYYCQQGYSISNVDNTFGGGTEVVVKG
Take B2: the Av. Resp. in test [1] amounted to 12.8; in [2] it was 45.1; in [3], 5; in test [4], 148; in test [5] it was 3.1; in test [6], 289. The molecule further gave an Av. Resp. in [7] of 330. Further, the OD450 in test [8] was found to be 1.11 OD450; in test [9], 0.91 OD450; in [10], 0.089 OD450; in [11], 0.092 OD450. Also, the Kd in test [12] is 0.279 nM; in [13], 0.619 nM; in test [14] it was 1.12 nM.

Broadly, the Kd is the equilibrium constant for the complex coming apart.

These data come from US20250237662A1.
